The term Kd denotes the equilibrium constant for the complex coming apart. Low values mean a tighter complex, high ones a looser complex.

For this experiment, the target named is human Ptch (SEQ ID NO:4), overexpressed on transfected human 293 embryonic kidney cells (human) (UniProt Q13635). The experiment can be described thus: Scatchard analysis of 125I-Shh displacement curves, 293 cells expressing Ptch.

As for “Dhh (SEQ ID NO:13) (from UniProt Q61488 23-198) (ligand)”, the Kd is 2.6 nM.

For the substance “Ihh (SEQ ID NO:29) (from UniProt P97812 28-202) (ligand)”, the Kd worked out at 1 nM.

“Shh (SEQ ID NO:14), 19kD amino terminal fragment of murine Shh (from UniProt Q62226 25-198) (ligand)”: the Kd amounted to 1 nM.

The record behind these values is patent publication US6709838.
